The source of these data is patent US20240132578A1.

What all share (assay): cell-based or functional assay
Experiment [1] addresses HIV-1 Env of isolate 93IN905 (Clade C) (HIV-1).
Experiment [2] addresses HIV-1 envelope glycoprotein (Env) of isolate MGRM-C-013 (HIV-1).
Experiment [3] addresses HIV-1 Env of isolate MGRM-A-011 (clade A pseudovirus) (HIV-1).
In experiment [4] the target is HIV-1 Env of isolate QH0692.42 (Acute), clade B (HIV-1).
Experiment [5] concerns the target HIV-1 Env of pseudovirus MGRM-F1-008 (clade F) (HIV-1).
In experiment [6] the target is HIV-1 MGRM-G-006 Env (pseudovirus) (HIV-1).
In experiment [7] the target is HIV-1 CMU02 Env (pseudovirus) (HIV-1).
For experiment [8], the target named is HIV-1 APV-6 envelope (Env) on pseudovirus (HIV-1).
In experiment [9] the target is HIV-1 APV-13 envelope (Env) on pseudovirus (HIV-1).
Experiment [10] deals with HIV-1 Env of isolate 92RW008 (clade A pseudovirus) (HIV-1).
Experiment [11] has as its target HIV-1 Env of pseudovirus MGRM-G-025 (HIV-1).
Experiment [12] concerns the target HIV-1 envelope glycoprotein (Env) of isolate MGRM-C-019 (HIV-1).
Experiment [13] addresses HIV-1 MGRM-AE-001 Env (pseudovirus) (HIV-1).
Experiment [14] has as its target HIV-1 envelope glycoprotein (Env) of isolate MGRM-C-012 (HIV-1).
Experiment [15] concerns the target HIV-1 Env of isolate MGRM-D-024 (clade D pseudovirus) (HIV-1).
Experiment [16] deals with HIV-1 92UG005 envelope (Env) on pseudovirus (HIV-1).
Experiment [17] concerns the target HIV-1 Env of pseudovirus MGRM-G-015 (HIV-1).
Experiment [18] concerns the target HIV-1 Env of pseudovirus MGRM-G-014 (HIV-1).
The target of experiment [19] is HIV-1 Env of isolate MGRM-A-012 (clade A pseudovirus) (HIV-1).
Experiment [20] has as its target HIV-1 Env of pseudovirus MGRM-D-026 (HIV-1).
For experiment [21], the target named is HIV-1 Env of pseudovirus MGRM-F1-022 (HIV-1).
In experiment [22] the target is HIV-1 Env of pseudovirus MGRM-D-020 (HIV-1).
Experiment [23] deals with HIV-1 Env of isolate MG RM-A-007 (pseudovirus) (HIV-1).
The target in experiment [24] is HIV-1 Env of isolate MGRM-G-028 (subtype G) (HIV-1).
The target in experiment [25] is HIV-1 Env of pseudovirus isolate CAAN.A2 (clade B) (HIV-1).
The target of experiment [26] is HIV-1 JR-CSF Env E466A (HIV-1 (isolate JR-CSF)) (UniProt P20871).
Experiment [27] deals with HIV-1 JR-CSF Env S393A (HIV-1 (isolate JR-CSF)) (UniProt P20871).
Experiment [28] concerns the target HIV-1 Env of isolate MGRM-AE-002 (subtype AE) (HIV-1).
In experiment [29] the target is HIV-1 Env of isolate MGRM-C-001 (HIV-1).
The target in experiment [30] is HIV-1 Env of pseudovirus isolate MGRM-C-008 (clade C) (HIV-1).
In experiment [31] the target is HIV-1 Env of isolate MGRM-F1-018 (HIV-1).
Experiment [32] deals with HIV-1 Env of isolate MGRM-A-008 (subtype A) (HIV-1).
Experiment [33] concerns the target HIV-1 Env of isolate 98CN009 (pseudovirus) (HIV-1).
In experiment [34] the target is HIV-1 Env of isolate MGRM-AE-004 (subtype AE) (HIV-1).
Experiment [35] addresses HIV-1 Env of pseudovirus isolate MGRM-C-020 (clade C) (HIV-1).
Experiment [36] has as its target HIV-1 JR-CSF Env N411A (HIV-1 (isolate JR-CSF)) (UniProt P20871).
In experiment [37] the target is HIV-1 Env of isolate MGRM-F1-008 (HIV-1).
The target of another experiment is HIV-1 APV6 Env (HIV-1).

Some results are limits rather than exact numbers.

Chain of PGT-141 (4964_G22; 4993_K13) (antibody) (VH): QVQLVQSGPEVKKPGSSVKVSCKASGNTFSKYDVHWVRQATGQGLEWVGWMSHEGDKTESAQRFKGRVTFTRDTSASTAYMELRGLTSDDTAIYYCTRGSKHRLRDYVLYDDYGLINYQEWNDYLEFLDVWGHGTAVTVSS
Chain of PGT-141 (4964_G22; 4993_K13) (antibody) (VL): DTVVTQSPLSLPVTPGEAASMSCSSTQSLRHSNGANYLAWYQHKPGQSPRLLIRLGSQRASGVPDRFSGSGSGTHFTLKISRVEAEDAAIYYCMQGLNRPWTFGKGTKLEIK
Chain of PGT-145 (4995_P16) (antibody) (VH): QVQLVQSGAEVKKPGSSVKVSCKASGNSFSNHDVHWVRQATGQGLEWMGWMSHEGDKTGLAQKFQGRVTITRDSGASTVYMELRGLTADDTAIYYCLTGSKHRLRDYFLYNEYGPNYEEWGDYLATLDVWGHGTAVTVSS
Chain of PGT-145 (4995_P16) (antibody) (VL): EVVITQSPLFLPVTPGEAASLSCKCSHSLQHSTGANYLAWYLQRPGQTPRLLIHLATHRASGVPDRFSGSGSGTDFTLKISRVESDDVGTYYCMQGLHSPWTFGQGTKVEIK
Chain of PGT-144 (4970_K22) (antibody) (VH): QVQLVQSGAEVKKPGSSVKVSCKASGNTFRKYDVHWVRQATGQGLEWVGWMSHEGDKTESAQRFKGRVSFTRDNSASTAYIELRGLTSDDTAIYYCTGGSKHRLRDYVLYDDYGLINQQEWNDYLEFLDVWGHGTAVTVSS
Chain of PGT-144 (4970_K22) (antibody) (VL): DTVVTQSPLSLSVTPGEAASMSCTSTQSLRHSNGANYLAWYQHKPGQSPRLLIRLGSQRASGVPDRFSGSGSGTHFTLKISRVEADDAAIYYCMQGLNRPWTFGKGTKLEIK
Chain of PGT-142 (4995_E20) (antibody) (VH): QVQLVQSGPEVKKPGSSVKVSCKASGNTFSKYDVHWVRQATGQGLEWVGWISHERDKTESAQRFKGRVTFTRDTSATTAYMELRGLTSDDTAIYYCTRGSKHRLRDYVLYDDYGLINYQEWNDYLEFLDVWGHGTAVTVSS
Chain of PGT-143 (4980_N08) (antibody) (VH): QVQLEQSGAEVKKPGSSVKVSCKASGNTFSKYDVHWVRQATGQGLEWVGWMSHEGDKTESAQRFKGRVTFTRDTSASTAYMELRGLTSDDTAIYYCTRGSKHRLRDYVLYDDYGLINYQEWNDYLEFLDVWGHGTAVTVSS
Chain of PGT-143 (4980_N08) (antibody) (VL): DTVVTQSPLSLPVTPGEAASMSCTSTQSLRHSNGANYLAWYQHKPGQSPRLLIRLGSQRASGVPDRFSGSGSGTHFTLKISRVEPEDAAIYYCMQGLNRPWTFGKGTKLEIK

What is called IC50 is the midpoint of a concentration-inhibition curve. A higher IC50 goes with lower potency. For the substance 2G12 (antibody), the IC90 (neutralization of pseudovirus) in experiment [1] was > 50 µg/mL. In addition, the IC50 (µg/ml), pseudovirus neutralization in [2] is > 50 µg/mL; in [3] it was > 50 µg/mL; in experiment [4] it was 4.39 µg/mL; in experiment [6] it was > 50 µg/mL; in [7] it was > 50 µg/mL; in experiment [10] it was 22.5 µg/mL. Moreover, the IC50 (µg/ml), pseudovirus neutralization in experiment [11] was 31.9 µg/mL; in experiment [12], > 50 µg/mL; in [13], > 50 µg/mL; in experiment [14] it was > 50 µg/mL; in experiment [17], > 50 µg/mL; in [18], > 50 µg/mL. In addition, the IC50 (µg/ml), pseudovirus neutralization in experiment [19] is > 50 µg/mL. Besides, in [5], the IC50 was > 50 µg/mL. Further, the neutralization IC50 is 5.3 µg/mL in [8], 23.9 µg/mL in experiment [9] and > 50 µg/mL in experiment [16]. The IC50, pseudovirus neutralization in [15] is > 50 µg/mL.

Consider b12 (antibody), for which the IC90 (neutralization of pseudovirus) in experiment [1] is > 50 µg/mL. The IC50 (µg/ml), pseudovirus neutralization in [2] was > 50 µg/mL; in experiment [3], 4.01 µg/mL; in [4], 0.73 µg/mL; in [6] it was > 50 µg/mL; in experiment [7] it was 29.3 µg/mL; in [10] it was 9.46 µg/mL. In addition, the IC50 (µg/ml), pseudovirus neutralization was > 50 µg/mL in experiment [11]; > 50 µg/mL in [12]; 25.9 µg/mL in [13]; > 50 µg/mL in experiment [14]; > 50 µg/mL in experiment [17]; > 50 µg/mL in experiment [18]. The IC50 (µg/ml), pseudovirus neutralization in [19] was > 50 µg/mL. For the same substance, the IC50 in experiment [5] was > 50 µg/mL. The neutralization IC50 was > 25 µg/mL in experiment [8], > 25 µg/mL in experiment [9] and > 50 µg/mL in [16]. Further, the IC50, pseudovirus neutralization in experiment [15] is 5.92 µg/mL.

Regarding 1495_C14 (PGC14) (antibody), the IC50 (µg/ml), pseudovirus neutralization is > 50 µg/mL in experiment [2]; > 50 µg/mL in [3]; > 50 µg/mL in experiment [4]; > 50 µg/mL in experiment [6]; > 50 µg/mL in [7]; 37 µg/mL in experiment [10]. The IC50 (µg/ml), pseudovirus neutralization in experiment [11] is > 50 µg/mL; in experiment [12], 12 µg/mL; in experiment [13] it was > 50 µg/mL; in experiment [14] it was > 50 µg/mL; in [17], > 50 µg/mL; in [18], > 50 µg/mL. In addition, the IC50 (µg/ml), pseudovirus neutralization in experiment [19] is > 50 µg/mL. Also, the concentration for half-maximal inhibition (IC50) in experiment [5] is > 50 µg/mL. Moreover, the neutralization IC50 in experiment [8] was 7.41 µg/mL; in [9], > 50 µg/mL; in [16], > 50 µg/mL. In addition, the IC50, pseudovirus neutralization in experiment [15] was > 50 µg/mL.

In the case of PGT-142 (4995_E20) (antibody), the IC50, pseudovirus neutralization in experiment [20] is 12.5 µg/mL; in [21] it was 0.04 µg/mL; in [22] it was > 50 µg/mL.

VRC01 (antibody) registered an IC50 (µg/mL), single-round pseudovirus neutralization in experiment [23] of 12.6 µg/mL. This substance showed an IC50 (µg/mL), pseudovirus neutralization in experiment [24] of 0.164 µg/mL. In addition, the IC50, pseudovirus neutralization in experiment [20] was determined as 0.435 µg/mL; in experiment [21], 0.055 µg/mL; in experiment [22], 0.192 µg/mL; in experiment [25] it was 0.722 µg/mL.

In the case of 5136_H01 (PGT-131) (antibody), the Fold IC50 increase relative to wild-type (pseudovirus neutralization) in experiment [26] stood at 1.7 fold; in experiment [27] it was 1.1 fold; in experiment [36], 0.6 fold. Moreover, the IC50, pseudovirus neutralization in experiment [28], in experiment [30], in experiment [32], in experiment [34] and in experiment [35] was > 50 µg/mL throughout. For the same substance, the IC50 (µg/mL), pseudovirus neutralization was > 50 µg/mL in [29], > 50 µg/mL in experiment [31], 4.05 µg/mL in [33] and 2.74 µg/mL in experiment [37].

Turning to PGT-143 (4980_N08) (antibody), the figures for the IC50, pseudovirus neutralization in experiment [20], in experiment [21] and in experiment [22] were 44.6 µg/mL, 0.082 µg/mL and > 50 µg/mL, respectively.

Take 5114_A19 (PGT-128) (antibody): the Fold IC50 increase relative to wild-type (pseudovirus neutralization) in [26] is 0.6 fold; in experiment [27], 1.4 fold; in experiment [36], 0.7 fold. Further, the IC50, pseudovirus neutralization in experiment [28] was 0.522 µg/mL; in experiment [30], 0.373 µg/mL; in [32], > 50 µg/mL; in [34], > 50 µg/mL; in experiment [35], 5.85 µg/mL. The IC50 (µg/mL), pseudovirus neutralization is > 50 µg/mL in experiment [29], 0.023 µg/mL in experiment [31], 0.025 µg/mL in [33] and > 50 µg/mL in [37].

For PGT-145 (4995_P16) (antibody), the IC50, pseudovirus neutralization in [20] was found to be 0.41 µg/mL; in experiment [21], 0.009 µg/mL; in experiment [22], 10 µg/mL.

For 5343_B08 (PGT-135) (antibody), the Fold IC50 increase relative to wild-type (pseudovirus neutralization) in [26] turned out to be 0.5 fold; in experiment [27] it was 0.9 fold; in [36], 0.2 fold. The IC50, pseudovirus neutralization in experiment [28], in experiment [30], in [32], in experiment [34] and in [35] was > 50 µg/mL each time. Also, the IC50 (µg/mL), pseudovirus neutralization is 10.1 µg/mL in experiment [29], > 50 µg/mL in experiment [31], 0.071 µg/mL in experiment [33] and > 50 µg/mL in experiment [37].

Turning to 5147_N06 (PGT-130) (antibody), the results for the Fold IC50 increase relative to wild-type (pseudovirus neutralization) in [26], in experiment [27] and in [36] were 1.7 fold, 0.7 fold and 0.6 fold, respectively. In addition, the IC50, pseudovirus neutralization was 1.53 µg/mL in [28]; 7.28 µg/mL in experiment [30]; > 50 µg/mL in experiment [32]; 2.43 µg/mL in [34]; > 50 µg/mL in experiment [35]; > 10 µg/mL in the experiment with HIV-1 APV6 Env (HIV-1). Besides, the IC50 (µg/mL), pseudovirus neutralization in experiment [29] was > 50 µg/mL; in experiment [31], > 50 µg/mL; in experiment [33] it was 0.136 µg/mL; in [37], 0.065 µg/mL.

For PGT-141 (4964_G22; 4993_K13) (antibody), the values for the IC50, pseudovirus neutralization in [20], in [21] and in experiment [22] were 32.5 µg/mL, 0.114 µg/mL and > 50 µg/mL, respectively.

PGT-144 (4970_K22) (antibody): the IC50, pseudovirus neutralization in experiment [20] is > 50 µg/mL; in experiment [21] it was 0.382 µg/mL; in [22], > 50 µg/mL.
